Target: the molecule itself
Experiment: crystal structure; Rrp4-exosome isoform (Rrp4, Rrp41, Rrp42 co-expressed and co-purified); 2.9 Å, space group C2; 30% PEG4000, 100 mM Tris-HCl pH 8.6, 200 mM Mg(Ac)2; refined without three-fold NCS

B1: Sulfolobus solfataricus exosome subunit Rrp4 as in the crystallised Rrp4-exosome isoform (natural protein)
chain: MNMSQSQKIVLQPRSIVVPGELLAEGEFQIPWSPYILKINSKYYSTVVGLFDVKDTQFEVIPLEGSFYYPKINDIVIGLVEDVEIYGWVVDIKAPYKAYLPASNLLGRSINVGEDLRRYLDVGDYVIARIENFDRSIDPVLSVKGKDLGRVSNGIVIDIMPVKVPRVIGKNKSMYETLTSKSGCSIFVANNGRIWATCPSRFSEEILIEAIRKIENESHIKGLTDRIKQFIEEKLGERNASSGETKTNS
notes: domains as printed: N-ter aa 1-50, S1 aa 56-126, KH aa 135-250; The purification of the Rrp4-exosome isoform is not described on its own; In the four-subunit preparation the His6-tag was removed with TEV protease, so the tag was probably cleaved here too; also called Chains C, F and I
- stoichiometry N: 3

Reference: paper PMC2806925, “Crystal Structure of the S. solfataricus Archaeal Exosome Reveals Conformational Flexibility in the RNA-Binding Ring” (PLoS ONE, 2010)
